# Values of other authors in PMC9638026.
# Target: TIRR (Homo sapiens) (UniProt Q9BRJ7)
# Conditions: cited from earlier work
# Chain of 53BP1 (Q12888 whole entry): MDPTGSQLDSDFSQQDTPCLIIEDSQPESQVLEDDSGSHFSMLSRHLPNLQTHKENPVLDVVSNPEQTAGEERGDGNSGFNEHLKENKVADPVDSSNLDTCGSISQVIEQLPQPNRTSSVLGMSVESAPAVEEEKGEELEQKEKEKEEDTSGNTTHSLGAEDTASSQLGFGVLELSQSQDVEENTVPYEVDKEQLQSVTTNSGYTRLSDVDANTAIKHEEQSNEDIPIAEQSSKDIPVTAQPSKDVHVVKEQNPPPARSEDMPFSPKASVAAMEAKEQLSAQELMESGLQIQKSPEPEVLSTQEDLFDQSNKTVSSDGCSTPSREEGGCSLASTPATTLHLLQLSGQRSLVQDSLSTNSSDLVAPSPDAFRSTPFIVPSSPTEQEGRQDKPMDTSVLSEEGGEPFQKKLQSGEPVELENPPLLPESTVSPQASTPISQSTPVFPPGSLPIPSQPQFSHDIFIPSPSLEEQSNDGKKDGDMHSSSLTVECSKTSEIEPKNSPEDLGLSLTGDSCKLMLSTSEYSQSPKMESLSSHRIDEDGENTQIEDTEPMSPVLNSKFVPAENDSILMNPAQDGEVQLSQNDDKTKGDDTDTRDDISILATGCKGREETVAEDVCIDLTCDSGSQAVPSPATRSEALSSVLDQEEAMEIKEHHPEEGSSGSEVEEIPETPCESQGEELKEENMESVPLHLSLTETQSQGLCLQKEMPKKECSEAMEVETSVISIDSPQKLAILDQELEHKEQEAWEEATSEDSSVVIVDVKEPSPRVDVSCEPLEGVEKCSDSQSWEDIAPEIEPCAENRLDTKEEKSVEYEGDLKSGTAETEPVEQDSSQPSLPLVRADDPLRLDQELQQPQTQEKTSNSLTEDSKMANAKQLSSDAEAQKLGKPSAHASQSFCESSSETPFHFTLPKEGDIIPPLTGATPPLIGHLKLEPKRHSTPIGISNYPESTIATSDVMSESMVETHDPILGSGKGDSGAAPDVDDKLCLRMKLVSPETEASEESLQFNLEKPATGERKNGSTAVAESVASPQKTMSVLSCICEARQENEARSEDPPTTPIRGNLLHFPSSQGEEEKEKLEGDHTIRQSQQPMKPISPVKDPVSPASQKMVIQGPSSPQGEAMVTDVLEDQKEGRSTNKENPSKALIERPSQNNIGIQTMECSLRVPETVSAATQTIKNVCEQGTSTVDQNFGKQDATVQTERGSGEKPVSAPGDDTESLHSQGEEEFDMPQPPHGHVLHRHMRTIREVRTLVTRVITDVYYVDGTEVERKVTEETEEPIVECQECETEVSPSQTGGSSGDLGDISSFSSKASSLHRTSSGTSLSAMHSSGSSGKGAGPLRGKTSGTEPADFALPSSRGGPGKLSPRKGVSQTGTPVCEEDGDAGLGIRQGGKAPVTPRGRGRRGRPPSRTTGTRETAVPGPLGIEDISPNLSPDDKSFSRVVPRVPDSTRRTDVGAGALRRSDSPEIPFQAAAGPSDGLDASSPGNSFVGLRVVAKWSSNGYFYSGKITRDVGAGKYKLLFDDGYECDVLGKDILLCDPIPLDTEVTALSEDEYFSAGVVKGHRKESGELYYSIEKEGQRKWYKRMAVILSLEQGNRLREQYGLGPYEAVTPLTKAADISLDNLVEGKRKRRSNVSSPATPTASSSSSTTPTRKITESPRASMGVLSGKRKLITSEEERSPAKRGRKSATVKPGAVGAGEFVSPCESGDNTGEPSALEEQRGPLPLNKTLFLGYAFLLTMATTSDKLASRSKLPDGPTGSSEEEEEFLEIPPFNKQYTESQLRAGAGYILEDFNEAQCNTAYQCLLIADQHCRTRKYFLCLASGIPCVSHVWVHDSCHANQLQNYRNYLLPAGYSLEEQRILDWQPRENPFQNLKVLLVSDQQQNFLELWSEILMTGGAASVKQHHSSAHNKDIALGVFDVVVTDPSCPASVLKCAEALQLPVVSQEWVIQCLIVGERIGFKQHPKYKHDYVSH
# Chain of TIRR (Homo sapiens) (Q9BRJ7 whole entry): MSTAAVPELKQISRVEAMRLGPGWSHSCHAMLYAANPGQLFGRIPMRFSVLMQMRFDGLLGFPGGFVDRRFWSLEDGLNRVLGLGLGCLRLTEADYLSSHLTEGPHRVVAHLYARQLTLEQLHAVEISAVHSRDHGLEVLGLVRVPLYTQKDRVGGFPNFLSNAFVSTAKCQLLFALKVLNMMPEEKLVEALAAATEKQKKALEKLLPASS
substance,measurement,value
53BP1 (from UniProt Q12888),Kd,1 µM
